Where “and” joins values, the source holds several entries; their conditions need not be identical. Identical values can stand only once.
Tests used:
[1] = molecular target: T1, α2-I-domain GST aa 140-339 (human, UniProt P17301 169-368); assay: solid phase assay: inhibition of biotinylated collagen binding to coated α2-I-domain
T1 construct: May be the same protein as m4; also called I-domain of integrin α2β1 integrin; not shown: GST
T1 sequence: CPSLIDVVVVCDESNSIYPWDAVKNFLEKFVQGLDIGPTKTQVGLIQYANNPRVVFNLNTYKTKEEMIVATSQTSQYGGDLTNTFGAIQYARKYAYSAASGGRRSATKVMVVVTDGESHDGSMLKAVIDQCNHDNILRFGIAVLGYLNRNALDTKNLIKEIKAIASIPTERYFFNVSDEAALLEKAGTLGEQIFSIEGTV
Method: For the Solid Phase Assay, integrin (α₂-I-domain: α₂-I-domain GST aa 140-339 in TBS/5 mM Mn²⁺, 50 μl/well) was immobilized on 96-well plate (Corning Costar, 3690), at room temperature overnight. Then, 25 μl/well of blocking solution (5% BSA (crude) (A7906), 1×TBS) were added and discarded. 200 μl/well of blocking solution were added and left for 3 h at room temperature. After a washing step (3 times with 200 μl/well binding buffer: 1×TBS and 0.1% BSA (A7638) and 2 mM Mn²⁺; TBS: 150 mM NaCl, 25 mM Tris (Fluka 93371) pH7.4), samples were incubated at RT for 3 h stationary with 50 μl of:
After a washing step (3 times with 200 μl/well binding buffer), samples were incubated with 50 μl/well ExtrAvidin Peroxidase (Peroxidase conjugate, Sigma E2886; 1:500 in binding buffer) for 30 min at RT and again washed 4 times with 200 μl/well binding buffer. […]

[2] = molecular target: T2, human integrin α2 I domain, recombinantly expressed in E. coli (human, UniProt P17301 169-368, limits assumed); assay: SPR Biacore 3000, antibody immobilised by amine coupling, I-domain as analyte, 1:1 model with mass transfer
T2 construct: Analyte of the Biacore experiments; also called integrin α2β1 I-domain; integrin I-domain
T2 sequence: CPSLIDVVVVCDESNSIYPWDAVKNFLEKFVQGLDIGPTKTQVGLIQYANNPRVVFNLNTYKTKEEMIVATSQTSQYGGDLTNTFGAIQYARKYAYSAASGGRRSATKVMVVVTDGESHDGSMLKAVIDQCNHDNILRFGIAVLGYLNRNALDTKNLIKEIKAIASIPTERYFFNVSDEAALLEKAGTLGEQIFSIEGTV
Excerpt: (§1) Surface plasmon resonance technology on a Biacore 3000 (GE Healthcare) was used for detailed kinetic characterisation of the purified antibody and the corresponding Fab fragment. A direct binding assay was used with the anti-integrin antibody or the Fab fragment as the ligand and the integrin α2β1 I-domain as analyte. Typically, 600 RU of antibody or Fab fragment were immobilised on a research grade CMS chip by amine reactive coupling, resulting in an Rmax of 80 and 140 RU for the I domain bound to the antibody and the Fab fragment, respectively. Binding kinetics were measured over a concentration range between 0.4 to 28 nM I-domain in HBS-P buffer supplemented with 4 mM MgCl2 (10 mM HEPES pH 7.4, 150 mM NaCl, 0.005% Surfactant P20) at a flow rate of 30 μl/min. Chip surfaces were regenerated with 10 mM glycine pH 2.2. Kinetic parameters were analysed and calculated in the BIAevaluation program package (version 4.1) using a flow cell without immobilised anti-integrin antibody or Fab fragment as reference. A 1:1 binding model with mass transfer was applied for a global fit of the data for curves corresponding to analyte concentrations from 0.4-28 nM […].

[3] = molecular target: T3, recombinantly expressed integrin α2β1 (human, UniProt P17301 30-1132; P05556 21-728, limits assumed); assay: solid phase assay: inhibition of biotinylated collagen binding to coated α2β1
T3 construct: The assay paragraph gives neither species nor construct limits; also called a2β1; recombinant α2 integrin
T3 sequence (P17301 30-1132 limits assumed, chain 1 of 2): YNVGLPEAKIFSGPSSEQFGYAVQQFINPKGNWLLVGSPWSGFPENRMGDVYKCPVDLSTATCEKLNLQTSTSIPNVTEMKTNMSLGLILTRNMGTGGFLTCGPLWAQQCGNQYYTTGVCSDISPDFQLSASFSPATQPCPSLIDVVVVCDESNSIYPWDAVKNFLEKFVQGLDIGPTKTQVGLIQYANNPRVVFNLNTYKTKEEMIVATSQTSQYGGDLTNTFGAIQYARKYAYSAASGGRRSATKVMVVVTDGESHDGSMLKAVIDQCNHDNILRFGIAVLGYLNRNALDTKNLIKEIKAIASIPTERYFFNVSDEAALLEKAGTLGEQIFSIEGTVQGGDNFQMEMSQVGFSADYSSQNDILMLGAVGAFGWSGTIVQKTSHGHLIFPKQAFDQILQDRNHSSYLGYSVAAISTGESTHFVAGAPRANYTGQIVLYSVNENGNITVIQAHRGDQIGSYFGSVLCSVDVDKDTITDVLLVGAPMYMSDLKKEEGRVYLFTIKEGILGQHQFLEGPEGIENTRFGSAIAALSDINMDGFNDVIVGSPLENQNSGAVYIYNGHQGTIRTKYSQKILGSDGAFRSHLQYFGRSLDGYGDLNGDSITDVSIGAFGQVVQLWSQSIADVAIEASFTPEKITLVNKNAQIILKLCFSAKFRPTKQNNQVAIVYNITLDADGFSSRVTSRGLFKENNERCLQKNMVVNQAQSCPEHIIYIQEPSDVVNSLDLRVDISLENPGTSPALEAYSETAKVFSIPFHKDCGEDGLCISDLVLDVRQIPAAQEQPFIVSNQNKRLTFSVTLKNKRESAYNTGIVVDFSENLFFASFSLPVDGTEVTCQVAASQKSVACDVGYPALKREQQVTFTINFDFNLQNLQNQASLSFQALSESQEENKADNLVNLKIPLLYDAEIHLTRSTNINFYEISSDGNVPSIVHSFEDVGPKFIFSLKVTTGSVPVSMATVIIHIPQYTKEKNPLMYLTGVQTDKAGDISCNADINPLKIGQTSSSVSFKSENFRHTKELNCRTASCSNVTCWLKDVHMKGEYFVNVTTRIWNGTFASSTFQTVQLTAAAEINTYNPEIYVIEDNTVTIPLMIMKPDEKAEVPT
T3 sequence (P05556 21-728 limits assumed, chain 2 of 2): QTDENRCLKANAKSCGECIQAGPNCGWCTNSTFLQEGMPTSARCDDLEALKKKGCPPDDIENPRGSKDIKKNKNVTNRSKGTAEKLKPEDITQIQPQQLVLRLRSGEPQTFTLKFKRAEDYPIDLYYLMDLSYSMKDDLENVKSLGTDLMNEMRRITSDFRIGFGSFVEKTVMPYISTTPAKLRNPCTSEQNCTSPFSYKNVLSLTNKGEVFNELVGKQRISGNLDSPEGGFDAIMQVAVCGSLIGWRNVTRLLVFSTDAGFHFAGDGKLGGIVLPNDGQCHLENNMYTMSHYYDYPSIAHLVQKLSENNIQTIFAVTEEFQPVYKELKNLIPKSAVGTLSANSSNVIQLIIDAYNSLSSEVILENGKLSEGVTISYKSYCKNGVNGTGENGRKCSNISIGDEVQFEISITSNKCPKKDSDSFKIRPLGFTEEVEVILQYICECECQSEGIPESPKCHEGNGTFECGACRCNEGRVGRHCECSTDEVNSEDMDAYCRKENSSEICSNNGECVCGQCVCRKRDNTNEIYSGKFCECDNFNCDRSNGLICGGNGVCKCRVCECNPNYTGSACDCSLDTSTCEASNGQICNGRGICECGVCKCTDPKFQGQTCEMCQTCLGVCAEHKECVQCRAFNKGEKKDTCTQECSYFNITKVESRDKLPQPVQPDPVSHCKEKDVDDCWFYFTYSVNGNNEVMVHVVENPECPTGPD

[4] = molecular target: T4, human α2β1 integrin on human platelets (human, UniProt P17301 30-1181; P05556 21-798); assay: cell-based or functional assay
T4 sequence (P17301 30-1181 limits assumed, chain 1 of 2): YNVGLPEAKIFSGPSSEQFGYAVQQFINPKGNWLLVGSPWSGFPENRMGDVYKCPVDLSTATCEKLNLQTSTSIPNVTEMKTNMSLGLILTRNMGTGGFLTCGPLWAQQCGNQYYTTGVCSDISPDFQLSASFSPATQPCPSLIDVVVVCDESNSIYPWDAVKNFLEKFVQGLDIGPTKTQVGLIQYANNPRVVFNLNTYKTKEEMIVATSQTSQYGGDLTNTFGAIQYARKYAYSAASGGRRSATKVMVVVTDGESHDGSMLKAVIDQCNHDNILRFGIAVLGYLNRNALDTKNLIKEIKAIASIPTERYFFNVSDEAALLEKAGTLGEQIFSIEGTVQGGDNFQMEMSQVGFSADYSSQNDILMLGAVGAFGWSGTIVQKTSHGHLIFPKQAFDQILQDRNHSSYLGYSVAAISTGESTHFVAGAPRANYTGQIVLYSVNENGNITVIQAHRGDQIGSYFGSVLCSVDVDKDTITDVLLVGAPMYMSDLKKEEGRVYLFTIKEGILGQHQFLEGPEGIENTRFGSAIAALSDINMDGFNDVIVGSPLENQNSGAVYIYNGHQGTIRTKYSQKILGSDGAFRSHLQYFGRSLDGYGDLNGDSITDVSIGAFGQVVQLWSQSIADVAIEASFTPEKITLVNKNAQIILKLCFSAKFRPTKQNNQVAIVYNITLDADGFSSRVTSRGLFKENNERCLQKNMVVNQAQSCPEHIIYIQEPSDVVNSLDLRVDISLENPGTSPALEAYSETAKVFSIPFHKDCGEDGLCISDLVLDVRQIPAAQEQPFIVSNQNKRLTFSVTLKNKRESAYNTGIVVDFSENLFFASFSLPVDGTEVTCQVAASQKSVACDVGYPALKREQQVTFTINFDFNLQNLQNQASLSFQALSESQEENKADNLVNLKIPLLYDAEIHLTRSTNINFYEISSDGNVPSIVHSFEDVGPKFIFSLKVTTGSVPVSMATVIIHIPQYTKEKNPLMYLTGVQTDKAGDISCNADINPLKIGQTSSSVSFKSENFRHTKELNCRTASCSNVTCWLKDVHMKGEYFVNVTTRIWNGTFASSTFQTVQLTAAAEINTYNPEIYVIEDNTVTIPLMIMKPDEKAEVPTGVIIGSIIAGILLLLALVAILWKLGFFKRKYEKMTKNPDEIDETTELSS
T4 sequence (P05556 21-798 limits assumed, chain 2 of 2): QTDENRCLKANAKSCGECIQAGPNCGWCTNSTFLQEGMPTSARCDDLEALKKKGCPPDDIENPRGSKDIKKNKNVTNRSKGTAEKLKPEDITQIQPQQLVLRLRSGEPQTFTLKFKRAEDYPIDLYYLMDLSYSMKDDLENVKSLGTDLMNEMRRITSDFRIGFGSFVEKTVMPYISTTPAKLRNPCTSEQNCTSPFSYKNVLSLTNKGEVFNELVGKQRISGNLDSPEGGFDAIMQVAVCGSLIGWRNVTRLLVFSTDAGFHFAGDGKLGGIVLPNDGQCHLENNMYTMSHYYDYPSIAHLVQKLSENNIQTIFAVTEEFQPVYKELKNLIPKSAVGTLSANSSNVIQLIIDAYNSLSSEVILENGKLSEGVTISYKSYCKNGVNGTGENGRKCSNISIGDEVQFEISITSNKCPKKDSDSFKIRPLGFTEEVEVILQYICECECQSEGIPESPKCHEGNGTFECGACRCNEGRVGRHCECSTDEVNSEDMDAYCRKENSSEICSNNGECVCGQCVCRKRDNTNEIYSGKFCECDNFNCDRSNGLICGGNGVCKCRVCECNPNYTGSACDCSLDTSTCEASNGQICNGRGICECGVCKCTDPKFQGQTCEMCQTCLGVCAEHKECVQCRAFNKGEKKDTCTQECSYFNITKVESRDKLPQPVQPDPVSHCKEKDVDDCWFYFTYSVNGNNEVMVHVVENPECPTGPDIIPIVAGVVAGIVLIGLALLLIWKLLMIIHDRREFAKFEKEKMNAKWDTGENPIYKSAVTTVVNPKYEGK

[5] = molecular target: T4, human α2β1 integrin on human platelets; assay: cell-based or functional assay; remark: listed apart in the source
[6] = molecular target: T4, human α2β1 integrin on human platelets; assay: cell-based or functional assay; remark: listed apart in the source
[7] = molecular target: T2, human integrin α2 I domain, …; assay: SPR Biacore 3000, Fab immobilised by amine coupling, I-domain as analyte, 1:1 model with mass transfer
Excerpt: as §1

[8] = molecular target: T3, recombinantly expressed integrin α2β1; assay: solid phase assay: inhibition of biotinylated collagen binding to coated α2β1, 4% HSA

B1: chimeric anti α2-integrin-IgG4 (murine variable domains on human IGKC and mutated human IGHG4) (antibody)
heavy: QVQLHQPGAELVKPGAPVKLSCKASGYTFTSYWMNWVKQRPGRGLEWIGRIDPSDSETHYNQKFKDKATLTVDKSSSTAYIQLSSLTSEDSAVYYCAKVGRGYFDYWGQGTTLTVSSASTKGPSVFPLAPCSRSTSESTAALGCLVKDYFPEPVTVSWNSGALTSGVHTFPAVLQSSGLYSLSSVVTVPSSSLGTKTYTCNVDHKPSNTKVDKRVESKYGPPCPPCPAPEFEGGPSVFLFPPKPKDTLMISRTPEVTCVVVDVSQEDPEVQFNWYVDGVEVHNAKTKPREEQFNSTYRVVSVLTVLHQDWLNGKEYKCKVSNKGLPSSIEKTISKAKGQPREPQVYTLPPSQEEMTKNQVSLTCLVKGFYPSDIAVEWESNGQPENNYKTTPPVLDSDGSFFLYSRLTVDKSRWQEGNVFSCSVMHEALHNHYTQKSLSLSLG
light: NIVLTQSPASLAVSLGQRATISCRASESVESYGNSFIYWYQQKPGQAPKLLIYLASNLASGVPARFSGSGSRTDFTLTIDPVEADDAATYYCQQNNEDPYTFGGGTKLEIKRTVAAPSVFIFPPSDEQLKSGTASVVCLLNNFYPREAKVQWKVDNALQSGNSQESVTEQDSKDSTYSLSSTLTLSKADYEKHKVYACEVTHQGLSSPVTKSFNRGEC
notes: Expressed in HEK 293-FS; also called IgG4 mAb; Antibody
IC50 [1]: 0.2 µg/mL and 1.5 nM
Kd [2]: 1.35 nM
koff [2]: 0.00117 s⁻¹
kon [2]: 860000 M⁻¹ s⁻¹
IC50 [3]: 0.05 µg/mL and 0.3 nM
Static human platelet adhesion to collagen (PRP), IC50 [4]: 0.3 µg/mL and 6.7 nM
Static human platelet adhesion to collagen (washed plt), IC50 [4]: 0.017 µg/mL and 0.1 nM

B2: humanized anti-α2-integrin mAb LC5/HC7 (antibody, IgG4, V domains shown)
VH: QVQLVQSGAEVKKPGASVKVSCKASGYTFTSYWMNWVRQAPGQGLEWIGRIDPSDSETHYAQKFQGRATLTVDKSTSTAYMELSSLRSEDTAVYYCAKVGRGYFDYWGQGTLVTVSS
VL: NIVLTQSPASLAVSPGQRATITCRASESVESYGNSFIYWYQQKPGQPPKLLIYLASNLASGVPARFSGSGSRTDFTLTINPVEADDTANYYCQQNNEDPYTFGGGTKLEIK
Inhibition of binding of washed platelets to collagen, IC50 [5]: 0.031 µg/mL
Inhibition of binding of platelets to collagen in platelet rich plasma, MW IC50 [6]: 0.224 µg/mL

B3: TMC2206, humanized hIgG4 anti-alpha 2 integrin antibody (comparator) (antibody, V domains shown)
VH: QVQLQESGPGLVKPSETLSLTCTVSGFSLTNYGIHWIRQPPGKGLEWLGVIWARGFTNYNSALMSRLTISKDNSKNQVSLKLSSVTAADTAVYYCARANDGVYYAMDYWGQGTLVTVSS
VL: DFVMTQSPAFLSVTPGEKVTITCSAQSSVNYIHWYQQKPDQAPKKLIYDTSKLASGVPSRFSGSGSGTDYTFTISSLEAEDAATYYCQQWTTNPLTFGQGTKVEIKR
Inhibition of binding of washed platelets to collagen, IC50 [5]: 0.023 µg/mL
Inhibition of binding of platelets to collagen in platelet rich plasma, MW IC50 [6]: 0.11 µg/mL

B4: chimeric anti α2-integrin-Fab (6xHis tagged CH1 of human IGHG1) (Fab, V domains shown)
VH: QVQLHQPGAELVKPGAPVKLSCKASGYTFTSYWMNWVKQRPGRGLEWIGRIDPSDSETHYNQKFKDKATLTVDKSSSTAYIQLSSLTSEDSAVYYCAKVGRGYFDYWGQGTTLTVSS
VL: NIVLTQSPASLAVSLGQRATISCRASESVESYGNSFIYWYQQKPGQAPKLLIYLASNLASGVPARFSGSGSRTDFTLTIDPVEADDAATYYCQQNNEDPYTFGGGTKLEIKR
notes: also called Fab fragment; Fab frament
Kd [7]: 0.84 nM
koff [7]: 0.00083 s⁻¹
kon [7]: 990000 M⁻¹ s⁻¹
IC50 [3]: 0.2 µg/mL and 4.2 nM
Human platelet adhesion to collagen under shear (whole blood) 3000 s-1, IC50 [4]: 1.3 nM and 0.06 µg/mL
Static human platelet adhesion to collagen (PRP), IC50 [4]: 0.3 µg/mL and 6.7 nM
Static human platelet adhesion to collagen (washed plt), IC50 [4]: 0.04 µg/mL and 0.8 nM
IC50 [8]: 0.4 µg/mL and 8.2 nM

B5: humanized anti-α2-integrin mAb LC3/HC3 (antibody, IgG4, V domains shown)
VH: QVQLHQPGAELVKPGASVKLSCKASGYTFTSYWMNWVKQRPGRGLEWIGRIDPSDSETHYNQKFKDKATLTVDKSSSTAYIQLSSLTSEDSAVYYCAKVGRGYFDYWGQGTTLTVVS
VL: NIVLTQSPSSLSVSVGQRATISCRASESVESYGNSFIYWYQQKPGQAPKLLIYLASNLASGVPARFSGSGSRTDFTLTIDPVQAEDAATYYCQQNNEDPYTFGGGTKLEIK
Inhibition of binding of washed platelets to collagen, IC50 [5]: 0.012 µg/mL
Inhibition of binding of platelets to collagen in platelet rich plasma, MW IC50 [6]: 0.132 µg/mL

B6: humanized anti-α2-integrin mAb LC4/HC6 (antibody, IgG4, V domains shown)
VH: QVQLHQPGAELVKPGASVKLSCKASGYTFTSYWMNWVKQRPGRGLEWIGRIDPSESETHYNQKFKDKATLTVDKSSSTAYIQLSSLTSEDSAKYYCAKVGRGYFDYWGQGTTLTVVS
VL: NIVLTQSPSSLSVSVGQRATISCRASESVESYGQSFIYWYQQKPGQAPKLLIYLASNLASGVPARFSGSGSRTDFTLTIDPVQAEDAATYYCQQNNEDPYTFGGGTKLEIK
Inhibition of binding of washed platelets to collagen, IC50 [5]: 0.068 µg/mL
Inhibition of binding of platelets to collagen in platelet rich plasma, MW IC50 [6]: 4.11 µg/mL

B7: humanized anti-α2-integrin mAb LC1/HC1 (antibody, IgG4, V domains shown)
VH: QVQLHQPGAELVKPGAPVKLSCKASGYTFTSYWMNWVKQRPGQGLEWIGRIDPSDSETHYNQKFKDRATLTVDKSSSTAYIQLSSLTSEDSAVYYCAKVGRGYFDYWGQGTTLTVVS
VL: NIVLTQSPSSLAVSVGQRATISCRASESVESYGNSFIYWYQQKPGKAPKLLIYLASNLASGVPARFSGSGSRTDFTLTIDPVQADDAATYYCQQNNEDPYTFGGGTKLEIK
Inhibition of binding of washed platelets to collagen, IC50 [5]: 0.021 µg/mL
Inhibition of binding of platelets to collagen in platelet rich plasma, MW IC50 [6]: 0.277 µg/mL

B8: humanized anti-α2-integrin mAb LC4/HC5 (antibody, IgG4, V domains shown)
VH: QVQLHQPGAELVKPGASVKLSCKASGYTFTSYWMNWVKQRPGRGLEWIGRIDPSESETHYNQKFKDKATLTVDKSSSTAYIQLSSLTSEDSAVYYCAKVGRGYFDYWGQGTTLTVVS
VL: NIVLTQSPSSLSVSVGQRATISCRASESVESYGQSFIYWYQQKPGQAPKLLIYLASNLASGVPARFSGSGSRTDFTLTIDPVQAEDAATYYCQQNNEDPYTFGGGTKLEIK
Inhibition of binding of washed platelets to collagen, IC50 [5]: 0.057 µg/mL
Inhibition of binding of platelets to collagen in platelet rich plasma, MW IC50 [6]: 3.25 µg/mL

B9: humanized anti-α2-integrin mAb LC3/HC4 (antibody, IgG4, V domains shown)
VH: QVQLHQPGAELVKPGASVKLSCKASGYTFTSYWMNWVKQRPGRGLEWIGRIDPSDSETHYNQKFKDKATLTVDKSSSTAYIQLSSLTSEDSAKYYCAKVGRGYFDYWGQGTTLTVVS
VL: NIVLTQSPSSLSVSVGQRATISCRASESVESYGNSFIYWYQQKPGQAPKLLIYLASNLASGVPARFSGSGSRTDFTLTIDPVQAEDAATYYCQQNNEDPYTFGGGTKLEIK
Inhibition of binding of washed platelets to collagen, IC50 [5]: 0.016 µg/mL
Inhibition of binding of platelets to collagen in platelet rich plasma, MW IC50 [6]: 0.193 µg/mL

B10: humanized anti-α2-integrin mAb LC2/HC2 (antibody, IgG4, V domains shown)
VH: QVQLHQPGAELVKPGAPVKLSCKASGYTFTSYWMNWVKQRPGQGLEWIGRIDPSESETHYNQKFKDRATLTVDKSSSTAYIQLSSLTSEDSAVYYCAKVGRGYFDYWGQGTTLTVVS
VL: NIVLTQSPSSLAVSVGQRATISCRASESVESYGQSFIYWYQQKPGKAPKLLIYLASNLASGVPARFSGSGSRTDFTLTIDPVQADDAATYYCQQNNEDPYTFGGGTKLEIK
Inhibition of binding of washed platelets to collagen, IC50 [5]: 0.092 µg/mL
Inhibition of binding of platelets to collagen in platelet rich plasma, MW IC50 [6]: 3.96 µg/mL
